Results: US20250018038A1 (UNIVERSITY OF CHICAGO, published 2025)

B1: SUR-FL-27 (Fab, V domains shown)
VH: EVQLVESGGGLVQPGGSLRLSCAASGFNVYSSYIHWVRQAPGKGLEWVASIYPSSGYTYYADSVKGRFTISADTSKNTAYLQMNSLRAEDTAVYYCARMSYYSWYYHSVYMYGLDYWGQGTLVTVSS
VL: DIQMTQSPSSLSASVGDRVTITCRASQSVSSAVAWYQQKPGKAPKLLIYSASSLYSGVPSRFSGSRSGTDFTLTISSLQPEDFATYYCQQASSDHSLITFGQGTKVEIKR
notes: also called SUR-FL-27 Fab
B2: SUR-N-36 Fab (Fab, V domains shown)
VH: EVQLVESGGGLVQPGGSLRLSCAASGFNVSYSSIHWVRQAPGKGLEWVASIYPYYGYTSYADSVKGRFTISADTSKNTAYLQMNSLRAEDTAVYYCAREEYSTVQYWYYYWYPGMDYWGQGTLVTVSS
VL: DIQMTQSPSSLSASVGDRVTITCRASQSVSSAVAWYQQKPGKAPKLLIYSASSLYSGVPSRFSGSRSGTDFTLTISSLQPEDFATYYCQQYMYSPITFGQGTKVEIKR
B3: SUR-N-07 (Fab, V domains shown)
VH: EVQLVESGGGLVQPGGSLRLSCAASGFNFSSSSIHWVRQAPGKGLEWVASISPYSGYTYYADSVKGRFTISADTSKNTAYLQMNSLRAEDTAVYYCARWYWAYPYWWYAMDYWGQGTLVTVSS
VL: DIQMTQSPSSLSASVGDRVTITCRASQSVSSAVAWYQQKPGKAPKLLIYSASSLYSGVPSRFSGSRSGTDFTLTISSLQPEDFATYYCQQSWGPPVTFGQGTKVEIKR
notes: also called SUR-N-07 Fab
B4: SUR-FL-29 Fab (Fab, V domains shown)
VH: EVQLVESGGGLVQPGGSLRLSCAASGFNVSYYSIHWVRQAPGKGLEWVASIYPYYGSTSYADSVKGRFTISADTSKNTAYLQMNSLRAEDTAVYYCARWQFYGYYHGLYFTDLGIDYWGQGTLVTVSS
VL: DIQMTQSPSSLSASVGDRVTITCRASQSVSSAVAWYQQKPGKAPKLLIYSASSLYSGVPSRFSGSRSGTDFTLTISSLQPEDFATYYCQQSGGFPITFGQGTKVEIKR
B5: SUR-N-40 Fab (Fab, V domains shown)
VH: EVQLVESGGGLVQPGGSLRLSCAASGFNFSSSSIHWVRQAPGKGLEWVAYIYPSYGYTSYADSVKGRFTISADTSKNTAYLQMNSLRAEDTAVYYCARSLYSKMWYYGSYYFYQVGLDYWGQGTLVTVSS
VL: DIQMTQSPSSLSASVGDRVTITCRASQSVSSAVAWYQQKPGKAPKLLIYSASSLYSGVPSRFSGSRSGTDFTLTISSLQPEDFATYYCQQGYKYLVTFGQGTKVEIKR
B6: SUR-FL-52 (Fab, V domains shown)
VH: EVQLVESGGGLVQPGGSLRLSCAASGFNFSSSSIHWVRQAPGKGLEWVASIYPYSGSTYYADSVKGRFTISADTSKNTAYLQMNSLRAEDTAVYYCARWDFGYYYWYSAIDYWGQGTLVTVSS
VL: DIQMTQSPSSLSASVGDRVTITCRASQSVSSAVAWYQQKPGKAPKLLIYSASSLYSGVPSRFSGSRSGTDFTLTISSLQPEDFATYYCQQYWYTLITFGQGTKVEIKR
notes: also called SUR-FL-52 Fab

How the values were obtained:
[1] = biological target: T1, cell surface survivin on cancer cells (human, UniProt O15392 1-142); test: flow cytometry of live cells, 200 nM Fab, anti-human F(ab')2-A647 secondary
T1 construct: whole, on cells
T1 sequence (O15392 whole entry): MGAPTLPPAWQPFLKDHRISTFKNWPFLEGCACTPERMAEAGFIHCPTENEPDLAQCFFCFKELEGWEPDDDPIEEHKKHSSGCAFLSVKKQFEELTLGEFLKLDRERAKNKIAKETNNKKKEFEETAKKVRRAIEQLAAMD
Description: (§1) Human or murine tumor cells were trypsinized, washed and resuspended in Flow buffer (1×PBS supplemented with 2% FBS) and added to a 96-well plate (#3799, Costar). 200 nM primary CPC Fab was mixed with 0.5M cells and incubated at 37 C for 20 min. […] Samples were analyzed by flow cytometry using CytoFLEX (Beckman Coulter) and mean fluorescence intensity (MFI) data was extracted using the FlowJo software (FIG. 5A-E, FIG. 6). Human peripheral blood mononuclear cells (PBMCs) derived from a single patient were used as a source of healthy human cells. PBMCs were counted, split and spun down 400×g 5 min. Cells were resuspended in Flow buffer (1×PBS supplemented with 2% FBS) and pre-incubated with TruStain FcX (1:20, Biolegend 422302) for 10 min at 37 C, followed by 200 nM primary Fab incubation at 37 for 20 min. […] Mean fluorescence intensity (MFI) data was extracted using the FlowJo software (FIG. 5F).

[2] = biological target: T2, Survivin of murine tumor cells (CT-26, MC-38) (mouse, UniProt O70201); test: flow cytometry of live murine colon tumor cells, 200 nM Fab, anti-human F(ab')2-A647 secondary
T2 construct: also called murine survivin
T2 sequence (O70201 whole entry): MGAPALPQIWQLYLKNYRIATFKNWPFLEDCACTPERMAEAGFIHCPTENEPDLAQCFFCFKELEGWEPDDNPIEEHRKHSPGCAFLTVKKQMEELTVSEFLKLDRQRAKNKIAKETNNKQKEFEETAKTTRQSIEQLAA
Description: as §1

[3] = biological target: T3, Survivin (purified recombinant Survivin protein) (human, UniProt O15392 1-140, limits assumed, biotinylated on the Avi-tag by BirA (antigens for selection and ELISA)); test: SPR: target immobilised on NTA chip by His-tag, 2-fold serial dilutions of Fab, 1:1 Langmuir fit
T3 construct: also called Baculoviral IAP repeat-containing protein 5; BIRC5
T3 sequence (O15392 1-140 limits assumed): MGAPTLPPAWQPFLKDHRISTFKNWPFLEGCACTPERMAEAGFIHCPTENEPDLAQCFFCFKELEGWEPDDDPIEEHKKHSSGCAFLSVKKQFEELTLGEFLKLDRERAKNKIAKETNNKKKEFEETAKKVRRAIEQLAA
Description: The targets were immobilized onto a nitrilotriacetic acid (NTA) sensor chip via His-tag. 2-fold serial dilutions of the Fab were injected following ligand immobilization on the sensor chip. For each kinetic assay at least five dilutions of the Fab were tested. The data were fitted using 1:1 Langmuir Model to obtain the on-rate, off-rate and the affinity (KD) of the Fab-target interaction. (FIG. 4).

[4] = biological target: T3, Survivin (purified recombinant Survivin …); test: multipoint protein ELISA: 50 nM immobilised target, 3-fold serial dilutions of purified Fab, protein L-HRP, sigmoidal fit
Description: Protein based multipoint ELISA was performed to estimate the affinity of the generated unique Fabs to their cognate antigens. A fixed concentration of the immobilized target (50 nM) on ELISA plate was incubated with 3-fold serial dilutions of the purified Fabs starting from […] for 15 min. The plates were washed and the bound antigen-Fab complexes were incubated with H1RP-conjugated protein L (1:5000 dilution in PBST). As with phage ELISA, the plates were again washed, developed with TMB substrate and quenched with 1.0 M HCl, and absorbance (A450) was determined. To determine the affinity, the data were fitted in a non-linear sigmoidal function with variable slope in GraphPad PRISM and EC50 value was calculated (FIG. 2).

| Binder | binding result [1] | binding result [2] | Kd [3] [nM] | EC50 [4] [nM] |
| --- | --- | --- | --- | --- |
| B1 | binds |  |  |  |
| B2 |  | binds | 4.2 | 2 |
| B3 | binds |  |  |  |
| B4 | binds | binds |  |  |
| B5 |  | binds | 2.1 | < 1 |
| B6 | binds |  |  |  |
